Experimental data published in patent US20250228976A1 (BROAD INSTITUTE, published 2025).
Residue numbers refer to the chain shown, from its start.

B1: AAV-BI98 (other)
chain: MAADGYLPDWLEDNLSEGIREWWALKPGAPQPKANQQHQDNARGLVLPGYKYLGPGNGLDKGEPVNAADAAALEHDKAYDQQLKAGDNPYLKYNHADAEFQERLKEDTSFGGNLGRAVFQAKKRLLEPLGLVEEAAKTAPGKKRPVEQSPQEPDSSAGIGKSGAQPAKKRLNFGQTGDTESVPDPQPIGEPPAAPSGVGSLTMASGGGAPVADNNEGADGVGSSSGNWHCDSQWLGDRVITTSTRTWALPTYNNHLYKQISNSTSGGSSNDNAYFGYSTPWGYFDFNRFHCHFSPRDWQRLINNNWGFRPKRLNFKLFNIQVKEVTDNNGVKTIANNLTSTVQVFTDSDYQLPYVLGSAHEGCLPPFPADVFMIPQYGYLTLNDGSQAVGRSSFYCLEYFPSQMLRTGNNFQFSYEFENVPFHSSYAHSQSLDRLMNPLIDQYLYYLSRTINGSGQNQQTLKFSVAGPSNMAVQGRNYIPGPSYRQQRVSTTVTQNNNSEFAWPGASSWALNGRNSLMNPGPAMASHKEGEDRFFPLSGSLIFGKQGTGRDNVDADKVMITNEEEIKTTNPVATESYGQVATNHQSAQYSRLNMNAQAQTGWVQNQGILPGMVWQDRDVYLQGPIWAKIPHTDGNFHPSPLMGGFGMKHPPPQILIKNTPVPADPPTAFNKDKLNSFITQYSTGQVSVEIEWELQKENSKRWNPEIQYTSNYYKSNNVEFAVNTEGVYSEPRPIGTRYLTRNL
notes: Engineered AAV capsid tested as assembled virus particles; entry is full VP1; also called AAV-B198
B2: AAV-BI99 (other)
chain: B1 chain with M594K, N595D
notes: Engineered AAV capsid tested as assembled virus particles; entry is full VP1
B3: AAV-BI100 (other)
chain: B1 chain with Y589V, S590H, N593Q, M594D, N595K
notes: as for B2
B4: AAV-BI101 (other)
chain: B1 chain with S590H, N593S, M594N
notes: as for B2
B5: AAV-BI19 (other)
chain: B1 chain with L592I, N593G, M594P
notes: Engineered AAV capsid, tested as assembled genome-packaging virus particles; VP2 and VP3 come from the same cap gene
B6: AAV-BI102 (other)
chain: B1 chain with Y589L, S590H, R591A, N593S, M594H
notes: as for B2

Experiments:
mouse TfR1 = target: T1, mouse TfR1 (mouse, UniProt Q62351 1-763); experiment: qPCR of cell-bound vector genomes, CHO cells stably expressing TfR1, 4 C, 1 h
T1 construct: whole, on cells; also called mouse TFRC; mouse Tfrc

macaque TfR1 = target: T2, macaque TfR1 (rhesus macaque, UniProt I0FKY7 1-760); experiment: as above
T2 construct: whole, on cells; also called macTfR1; rhesus macaque TFRC

marmoset TfR1 = target: T3, marmoset TfR1 (marmoset, UniProt U3FHF5 1-760); experiment: as above
T3 construct: whole, on cells; also called marmoset TFRC; marTFRC

[1] = target: T4, human Transferrin Receptor (TFRC) (human, UniProt P02786 1-760); experiment: binding of AAV to CHO or hCMEC cells expressing human TFRC, relative to AAV9
T4 construct: whole, on cells; also called hTFRC; huTfR1

[2] = target: T4, human Transferrin Receptor (TFRC); experiment: legend of the 2-step in vivo transduction assay (human TFRC expressed in mouse brain endothelium)

T1 sequence (Q62351 whole entry): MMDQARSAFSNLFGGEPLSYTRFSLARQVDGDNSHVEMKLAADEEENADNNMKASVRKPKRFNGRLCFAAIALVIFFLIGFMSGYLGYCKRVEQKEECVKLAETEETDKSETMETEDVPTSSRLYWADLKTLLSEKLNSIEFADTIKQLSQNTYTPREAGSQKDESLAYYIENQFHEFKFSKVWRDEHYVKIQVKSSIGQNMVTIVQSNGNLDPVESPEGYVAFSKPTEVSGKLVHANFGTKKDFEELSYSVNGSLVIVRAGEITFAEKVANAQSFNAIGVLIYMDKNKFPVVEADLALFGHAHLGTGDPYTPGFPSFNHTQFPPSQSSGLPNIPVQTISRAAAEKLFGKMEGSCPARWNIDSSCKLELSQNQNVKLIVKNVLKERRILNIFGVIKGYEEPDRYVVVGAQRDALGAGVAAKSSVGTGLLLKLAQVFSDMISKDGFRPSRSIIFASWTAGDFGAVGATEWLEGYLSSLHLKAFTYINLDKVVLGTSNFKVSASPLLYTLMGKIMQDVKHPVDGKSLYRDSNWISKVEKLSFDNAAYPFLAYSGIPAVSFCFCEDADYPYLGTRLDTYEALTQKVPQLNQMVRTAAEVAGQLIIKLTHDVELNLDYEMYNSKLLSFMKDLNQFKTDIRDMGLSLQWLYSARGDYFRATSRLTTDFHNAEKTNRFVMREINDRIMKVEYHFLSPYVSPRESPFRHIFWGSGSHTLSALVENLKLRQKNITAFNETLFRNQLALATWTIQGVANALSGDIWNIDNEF
T4 sequence (P02786 whole entry): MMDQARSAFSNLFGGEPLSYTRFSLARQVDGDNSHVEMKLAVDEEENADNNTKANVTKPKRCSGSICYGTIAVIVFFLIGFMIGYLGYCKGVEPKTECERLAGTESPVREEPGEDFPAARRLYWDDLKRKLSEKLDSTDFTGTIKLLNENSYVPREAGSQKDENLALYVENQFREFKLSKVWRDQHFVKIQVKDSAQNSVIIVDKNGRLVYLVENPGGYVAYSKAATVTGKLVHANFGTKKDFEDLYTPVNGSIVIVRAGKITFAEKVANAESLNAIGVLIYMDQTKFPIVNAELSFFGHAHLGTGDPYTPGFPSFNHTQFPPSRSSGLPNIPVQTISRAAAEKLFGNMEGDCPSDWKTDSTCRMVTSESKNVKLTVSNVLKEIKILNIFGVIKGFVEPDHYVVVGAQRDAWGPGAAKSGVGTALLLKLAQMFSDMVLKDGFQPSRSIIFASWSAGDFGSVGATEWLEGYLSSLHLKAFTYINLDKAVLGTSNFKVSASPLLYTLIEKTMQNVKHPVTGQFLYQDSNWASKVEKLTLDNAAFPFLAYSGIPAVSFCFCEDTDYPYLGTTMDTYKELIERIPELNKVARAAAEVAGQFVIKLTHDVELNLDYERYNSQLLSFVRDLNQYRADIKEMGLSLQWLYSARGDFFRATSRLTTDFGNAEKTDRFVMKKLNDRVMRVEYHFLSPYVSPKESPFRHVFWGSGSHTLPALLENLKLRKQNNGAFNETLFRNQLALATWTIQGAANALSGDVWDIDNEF

Binder	binding result (mouse TfR1)	binding result (macaque TfR1)	binding result (marmoset TfR1)	binding result [1]	binding result [2]
B1	no binding (tested: 3,000 vg/cell)	no binding (tested: 3,000 vg/cell)	no binding (tested: 3,000 vg/cell)	binds	–
B2	no binding (tested: 3,000 vg/cell)	no binding (tested: 3,000 vg/cell)	no binding (tested: 3,000 vg/cell)	binds	–
B3	–	–	–	binds	–
B4	no binding (tested: 3,000 vg/cell)	no binding (tested: 3,000 vg/cell)	no binding (tested: 3,000 vg/cell)	binds	–
B5	no binding (tested: 3,000 vg/cell)	no binding (tested: 3,000 vg/cell)	no binding (tested: 3,000 vg/cell)	–	binds
B6	–	–	–	binds	–
